Values quoted from earlier work in paper PMC8980424.

Tests used:
[1] = target: IFNAR1 (Homo sapiens) (UniProt P17181)
[2] = target: IFNAR2 (Homo sapiens) (UniProt P48551)
[3] = target: IFNAR2 (Mus musculus) (UniProt O35664)
[4] = target: IFNAR1 (Mus musculus) (UniProt P33896)
UniProt P33896, sequence (P33896 27-429): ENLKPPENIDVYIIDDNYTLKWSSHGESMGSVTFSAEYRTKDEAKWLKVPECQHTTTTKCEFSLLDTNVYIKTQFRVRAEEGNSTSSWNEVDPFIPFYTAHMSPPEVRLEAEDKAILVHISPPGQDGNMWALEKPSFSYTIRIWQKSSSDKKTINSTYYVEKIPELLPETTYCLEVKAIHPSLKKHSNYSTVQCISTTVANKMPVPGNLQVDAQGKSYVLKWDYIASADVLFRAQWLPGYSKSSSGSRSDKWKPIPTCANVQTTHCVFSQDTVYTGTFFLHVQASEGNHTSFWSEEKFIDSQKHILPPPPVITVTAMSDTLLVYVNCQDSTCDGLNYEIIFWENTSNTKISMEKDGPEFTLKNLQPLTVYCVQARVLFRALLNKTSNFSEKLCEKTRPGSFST

UniProt O35664, sequence (O35664 22-242): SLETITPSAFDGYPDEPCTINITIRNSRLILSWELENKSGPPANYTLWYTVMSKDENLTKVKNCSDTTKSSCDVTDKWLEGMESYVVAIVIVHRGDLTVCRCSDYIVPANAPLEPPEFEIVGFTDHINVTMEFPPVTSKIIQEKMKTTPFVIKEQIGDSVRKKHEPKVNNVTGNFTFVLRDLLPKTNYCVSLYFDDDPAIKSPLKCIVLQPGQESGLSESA
UniProt P17181, sequence (P17181 28-436): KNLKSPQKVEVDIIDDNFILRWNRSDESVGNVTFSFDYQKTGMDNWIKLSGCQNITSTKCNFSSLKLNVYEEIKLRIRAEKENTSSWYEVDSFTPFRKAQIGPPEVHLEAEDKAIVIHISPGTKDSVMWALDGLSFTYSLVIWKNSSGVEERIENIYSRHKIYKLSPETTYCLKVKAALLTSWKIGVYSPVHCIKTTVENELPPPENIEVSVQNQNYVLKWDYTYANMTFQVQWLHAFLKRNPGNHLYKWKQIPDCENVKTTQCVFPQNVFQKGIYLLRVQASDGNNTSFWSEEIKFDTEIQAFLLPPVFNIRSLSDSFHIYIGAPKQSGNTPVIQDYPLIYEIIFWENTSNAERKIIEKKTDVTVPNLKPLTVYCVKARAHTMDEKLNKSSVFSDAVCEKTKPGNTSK
UniProt P48551, sequence (P48551 27-243): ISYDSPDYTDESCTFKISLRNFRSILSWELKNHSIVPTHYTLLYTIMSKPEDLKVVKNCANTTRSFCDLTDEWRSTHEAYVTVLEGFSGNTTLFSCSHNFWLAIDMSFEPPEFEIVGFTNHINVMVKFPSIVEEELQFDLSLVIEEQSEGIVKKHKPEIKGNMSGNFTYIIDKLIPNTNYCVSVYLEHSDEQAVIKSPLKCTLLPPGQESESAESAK

For Interferon beta (from UniProt P01574), which Kd [1] is on record?
Its Kd is 30 nM.

And the Kd [2]?
The Kd was 0.1 nM.

With Interferon beta (from UniProt P01575) as the substance, how does the Kd [3] read?
The Kd was 1700 nM.

What about the Kd [4] of the same substance?
Its Kd is 10 nM.
